Test results published in publication PMC10849882 (The Journal of Cell Biology, 2024).

Target: the molecule itself
Assay: negative stain EM

B1: IMPDH1(514)-S477D (enzyme)
chain: not shown
  binding result: binds

B2: IMPDH1(514)-WT (enzyme)
chain: not shown
  binding result: binds
